Laboratory results: US12338287B2, “Treatment of cancer using a CD33 chimeric antigen receptor” (Novartis AG, priority 2014, dated 2025)

Experiments:
[1] = molecular target: recombinant Fc-tagged hsCD33 (Homo sapiens, UniProt P20138); test: scFv binding to recombinant CD33 by flow cytometry (JNL cells); conditions: scFv on JNL cells, Fc-tagged hsCD33, PE secondary; FIG. 32
Description: Finally, scFv cross-reactivity to cynomolgus CD33 (cyCD33) was assessed by flow cytometry as depicted in FIG. 32. JNL cells transduced with a lentiviral vector expressing scFv's raised against hsCD33 were incubated with either recombinant Fc-tagged hsCD33 (red line) or cyCD33 (blue line) followed by incubation with an Fc-specific secondary antibody conjugated to phycoerythrin.

[2] = system: MOLM13; test: NFAT-dependent luciferase reporter activation of JNL cells; format: cell-based; conditions: JNL cells co-cultured with MOLM13 relative to MOLP8 or GFP JNL cells; 24 hours
Excerpt: FIGS. 28A, 28B, 28C, and 28D are images showing the ability of individual scFv's targeting hsCD33 to elicit NFAT activity in JNL cells. JNL cells expressing scFv's against hsCD33 were co-cultured with MOLM13 or MOLP8 cell lines, which express hsCD33 or lack hsCD33 cell surface expression, respectively (FIG. 28A; hsCD33, solid green line; isotype control, gray dashed line and shaded area). FIG. 28B depicts the activation of JNL cells expressing an scFv targeting hsCD33 in the presence of MOLM13 (solid lines) or MOLP8 (dashed lines) cells. JNL cells expressing individual scFv's were plated at different effector (i.e. JNL cells) to target (i.e. MOLM13 or MOLP8) ratios and analyzed for the expression of relative luciferase units (RLUs) using the Bright-Glo™ Luciferase Assay on the EnVision instrument 24 hours post-incubation. FIG. 28C is a version of FIG. 28B, depicting the activation of JNL cells in the presence of MOLM13. […]
Individual scFv's targeting hsCD33 were evaluated for their ability to elicit NFAT activity in JNL cells (FIG. 28). […] JNL cells expressing individual scFv's were plated at different effector (i.e. JNL cells) to target (i.e. MOLM13 or MOLP8) ratios and analyzed for the expression of relative luciferase units (RLUs) using the Bright-Glo™ Luciferase Assay on the EnVision instrument 24 hours post-incubation.

recombinant Fc-tagged hsCD33, sequence (P20138 18-259 limits assumed): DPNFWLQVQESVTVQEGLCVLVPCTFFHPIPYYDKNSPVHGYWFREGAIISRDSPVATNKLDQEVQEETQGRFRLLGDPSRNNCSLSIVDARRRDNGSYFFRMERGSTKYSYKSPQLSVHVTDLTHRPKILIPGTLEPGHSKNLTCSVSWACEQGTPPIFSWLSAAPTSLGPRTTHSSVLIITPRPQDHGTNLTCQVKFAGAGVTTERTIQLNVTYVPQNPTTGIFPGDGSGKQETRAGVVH

B1: CD33-UPenn: an scFv based on the sequence of Mylotarg, a monoclonal antibody that binds to the human CD33 antigen (protein)
chain: EIVLTQSPGSLAVSPGERVTMSCKSSQSVFFSSSQKNYLAWYQQIPGQSPRLLIYWASTRESGVPDRFTGSGSGTDFTLTISSVQPEDLAIYYCHQYLSSRTFGQGTKLEIKRGGGGSGGGGSSGGGSQVQLQQPGAEVVKPGASVKMSCKASGYTFTSYYIHWIKQTPGQGLEWVGVIYPGNDDISYNQKFQGKATLTADKSSTTAYMQLSSLTSEDSAVYYCAREVRLRYFDVWGQGTTVTVSS
modifications: left off: small tags and cut ends
Binding of hsCD33 [1]: capable of binding hsCD33 | NFAT-dependent luciferase activity (RLUs) [2]: capable of triggering NFAT-dependent luciferase activity
